Reference: publication PMC5566391

B1: TRAIL-Fc fusion protein, P50591 39-281 (Fc fusion)
chain: TNELKQMQDKYSKSGIACFLKEDDSYWDPNDEESMNSPCWQVKWQLRQLVRKMILRTSEETISTVQEKQQNISPLVRERGPQRVAAHITGTRGRSNTLSSPNSKNEKALGRKINSWESSRSGHSFLSNLHLRNGELVIHEKGFYYIYSQTYFRFQEEIKENTKNDKQMVQYIYKYTSYPDPILLMKSARNSCWSKDAEYGLYSIYQGGIFELKENDRIFVSVTNEHLIDMDHEASFFGAFLVG

Legend:
[1] = target: TRAIL-Trimer fusion protein (human) (UniProt P50591); assay: SDS-PAGE under non-reducing and reducing conditions; 2 µg of purified protein on 10% or 15% SDS-PAGE, Coomassie Blue; TRAIL-Trimer also by western blot
[2] = target: T1, TRAIL-Fc fusion protein (human), P50591; assay: as above; settings: remark: other sources report otherwise
T1 chain: B1 chain

| Molecule | stoichiometry N [1] | stoichiometry N [2] |
| --- | --- | --- |
| TRAIL-Trimer fusion protein (from UniProt P50591 39-281) (ligand) | 3 |  |
| B1 |  | 2 |
